# Laboratory results published in PMC4458174 (DNA repair, 2015).
# T1: mouse Myh (mMyh), His-tagged (mouse, UniProt Q99P21 1-515)
# T1 sequence (looked up): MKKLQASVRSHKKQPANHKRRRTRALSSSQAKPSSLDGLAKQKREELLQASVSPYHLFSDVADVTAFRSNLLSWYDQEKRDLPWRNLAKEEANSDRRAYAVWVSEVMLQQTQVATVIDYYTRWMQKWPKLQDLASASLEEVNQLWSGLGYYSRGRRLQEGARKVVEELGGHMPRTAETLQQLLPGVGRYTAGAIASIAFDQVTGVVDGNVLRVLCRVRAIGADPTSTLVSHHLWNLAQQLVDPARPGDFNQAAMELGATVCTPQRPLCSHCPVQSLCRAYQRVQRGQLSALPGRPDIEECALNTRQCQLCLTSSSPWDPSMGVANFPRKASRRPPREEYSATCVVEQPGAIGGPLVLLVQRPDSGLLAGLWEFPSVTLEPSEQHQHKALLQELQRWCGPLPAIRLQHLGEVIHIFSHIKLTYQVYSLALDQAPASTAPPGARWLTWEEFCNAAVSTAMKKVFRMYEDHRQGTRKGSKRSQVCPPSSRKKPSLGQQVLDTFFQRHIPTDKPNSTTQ
# Biological target: T1, mouse Myh (mMyh), His-tagged
# Experiment: pull-down
row,Binder,binding result
1,"GST-hHus1N(-) (residues 1-133) (domain or fragment, human, UniProt O60921 1-133, looked up) MKFRAKIVDGACLNHFTRISNMIAKLAKTCTLRISPDKLNFILCDKLANGGVSMWCELEQENFFNEFQMEGVSAENNEIYLELTSENLSRALKTAQNARALKIKLTNKHFPCLTVSVELLSMSSSSRIVTHDI",binds
2,"GST-hHus1N (residues 1-146) (domain or fragment, human, UniProt O60921 1-146, looked up) MKFRAKIVDGACLNHFTRISNMIAKLAKTCTLRISPDKLNFILCDKLANGGVSMWCELEQENFFNEFQMEGVSAENNEIYLELTSENLSRALKTAQNARALKIKLTNKHFPCLTVSVELLSMSSSSRIVTHDIPIKVIPRKLWKDL",binds
3,"GST-tagged hHus1 (wild type) (natural protein, human, UniProt O60921 1-280, looked up) MKFRAKIVDGACLNHFTRISNMIAKLAKTCTLRISPDKLNFILCDKLANGGVSMWCELEQENFFNEFQMEGVSAENNEIYLELTSENLSRALKTAQNARALKIKLTNKHFPCLTVSVELLSMSSSSRIVTHDIPIKVIPRKLWKDLQEPVVPDPDVSIYLPVLKTMKSVVEKMKNISNHLVIEANLDGELNLKIETELVCVTTHFKDLGNPPLASESTHEDRNVEHMAEVHIDIRKLLQFLAGQQVNPTKALCNIVNNKMVHFDLLHEDVSLQYFIPALS",binds
4,"GST-hHus1 V137A (natural protein, human, UniProt O60921 1-280, looked up) MKFRAKIVDGACLNHFTRISNMIAKLAKTCTLRISPDKLNFILCDKLANGGVSMWCELEQENFFNEFQMEGVSAENNEIYLELTSENLSRALKTAQNARALKIKLTNKHFPCLTVSVELLSMSSSSRIVTHDIPIKAIPRKLWKDLQEPVVPDPDVSIYLPVLKTMKSVVEKMKNISNHLVIEANLDGELNLKIETELVCVTTHFKDLGNPPLASESTHEDRNVEHMAEVHIDIRKLLQFLAGQQVNPTKALCNIVNNKMVHFDLLHEDVSLQYFIPALS",binds

# Other lines, results leading:
row,binding result,Binder
1,binds,"GST-hHus1 K136A (natural protein, human, UniProt O60921 1-280, looked up) MKFRAKIVDGACLNHFTRISNMIAKLAKTCTLRISPDKLNFILCDKLANGGVSMWCELEQENFFNEFQMEGVSAENNEIYLELTSENLSRALKTAQNARALKIKLTNKHFPCLTVSVELLSMSSSSRIVTHDIPIAVIPRKLWKDLQEPVVPDPDVSIYLPVLKTMKSVVEKMKNISNHLVIEANLDGELNLKIETELVCVTTHFKDLGNPPLASESTHEDRNVEHMAEVHIDIRKLLQFLAGQQVNPTKALCNIVNNKMVHFDLLHEDVSLQYFIPALS"
2,binds,"GST-hHus1C (residues 147-280) (domain or fragment, human, UniProt O60921 147-280, looked up) QEPVVPDPDVSIYLPVLKTMKSVVEKMKNISNHLVIEANLDGELNLKIETELVCVTTHFKDLGNPPLASESTHEDRNVEHMAEVHIDIRKLLQFLAGQQVNPTKALCNIVNNKMVHFDLLHEDVSLQYFIPALS"
3,binds,"GST-hHus1N(+) (residues 1-155) (domain or fragment, human, UniProt O60921 1-155, looked up) MKFRAKIVDGACLNHFTRISNMIAKLAKTCTLRISPDKLNFILCDKLANGGVSMWCELEQENFFNEFQMEGVSAENNEIYLELTSENLSRALKTAQNARALKIKLTNKHFPCLTVSVELLSMSSSSRIVTHDIPIKVIPRKLWKDLQEPVVPDPD"
